Consider nine molecules from patent publication US9255257B2, “PmST1 mutants for chemoenzymatic synthesis of sialyl lewis X compounds” (THE REGENTS OF THE UNIVERSITY OF CALIFORNIA, priority 2011, dated 2016).

Positions count from the first letter of the chain named. Names and notes keep the numbering of the source.

Data set [1] has as its system CC(=O)N[C@H]1[C@H]([C@H](O)[C@H](O)CO)O[C@](OP(=O)(O)OC[C@H]2O[C@@H](n3ccc(N)nc3=O)[C@H](O)[C@@H]2O)(C(=O)O)C[C@@H]1O. Briefly: α2-3-sialyltransferase activity, LacβMU as acceptor. It counts as biochemical, Pasteurella multocida. To be noted: other: apparent, donor, LacβMU 1 mM, Tris-HCl pH 8.5, 37° C. As for the experimental part:
(§1) To obtain the apparent kinetic parameters of LacβMU as the acceptor for the α2-3-sialyltransferase activity, the kinetic assays were performed in duplicate in reaction mixtures of 10 μL containing Tris-HCl buffer (100 mM, pH 8.5), a fixed concentration of CMP-Neu5Ac (1 mM), different concentrations of LacβMU (0.2, 0.5, 1.0, 2.0, 5.0, and 9.0 mM) and the mutant proteins (2 μg mL^−1 of E271F, 2 μg mL^−1 of R313Y, and 1.6 μg mL^−1 of E271F/R313Y). All reactions were allowed to proceed at 37° C. for 5 min (E271F), 7 min (R313Y), and 10 min (E271F/R313Y). The apparent kinetic parameters were obtained by fitting the experimental data (the average values of duplicate assay results) into the Michaelis-Menten equation using Grafit 5.0.
(§2) To obtain the apparent kinetic parameters of CMP-Neu5Ac as the donor for the α2-3-sialyltransferase activity, the kinetic assays were performed in duplicate in reaction mixtures of 10 μL containing Tris-HCl buffer (100 mM, pH 8.5), a fixed concentration of LacβMU (1 mM), different concentrations of CMP-Neu5Ac (0.1, 0.2, 0.5, 1.0, 2.0, 5.0, 10.0 and 20.0 mM) and the mutant proteins (2 μg mL^−1 of E271F, 2 μg mL^−1 of R313Y, and 1.6 μg mL^−1 of E271F/R313Y). All reactions were allowed to proceed at 37° C. for 2 min (E271F), 7 min (R313Y), and 5 min (E271F/R313Y). The apparent kinetic parameters were obtained by fitting the experimental data (the average values of duplicate assay results) into the Michaelis-Menten equation using Grafit 5.0.
(§3) All the sialidase and α2-3-sialyltransferase assays were performed in an HPLC system. Reactions were stopped by adding 10 μL of ethanol. After necessary dilutions were performed to adjust the concentrations of the fluorescent-labeled compounds, the samples were then kept on ice until aliquots of 8 μL were injected and analyzed by a Shimadzu LC-6AD system equipped with a membrane on-line degasser, a temperature control unit, and a fluorescence detector (Shimadzu RF-10AXL). A reverse-phase Premier C18 column (250×4.6 mm i.d., 5 μm particle size, Shimadzu) protected with a C18 guard column cartridge was used. The mobile phase was 25% acetonitrile. The fluorescent compounds LacβMU and Neu5Acα2-3LacβMU were detected by excitation at 325 nm and emission at 372 nm.

The subject of data set [2] is Cc1cc(=O)oc2cc(O[C@@H]3O[C@H](CO)[C@@H](O[C@@H]4O[C@H](CO)[C@H](O)[C@H](O)[C@H]4O)[C@H](O)[C@H]3O)ccc12. The description is as above. The class given is biochemical, Pasteurella multocida. Particulars: other: apparent, acceptor, CMP-Neu5Ac 1 mM, Tris-HCl pH 8.5, 37° C. As for the experimental part: as §1, §2, §3
Data set [3] concerns CC(=O)N[C@H]1[C@H]([C@H](O)[C@H](O)CO)O[C@@](O[C@H]2[C@@H](O)[C@@H](CO)O[C@@H](O[C@H]3[C@H](O)[C@@H](O)[C@H](Oc4ccc5c(C)cc(=O)oc5c4)O[C@@H]3CO)[C@@H]2O)(C(=O)O)C[C@@H]1O. Briefly: α2-3-sialidase activity, Neu5Acα2-3LacβMU as substrate. The class given is biochemical, Pasteurella multocida. Particulars: other: apparent, MES pH 5.5, 37° C. As for the experimental part: Site-directed mutagenesis. Site-directed mutagenesis was carried out using the QuikChange multi-site-directed mutagenesis kit from Stratagene according to the manufacturer's protocol. The primers used were 5′-[…] -3′ (SEQ ID NO:32) for E271F and 5′-[…]-3′ (SEQ ID NO:33) for R313Y. The sites of mutations are underlined.
Protein Expression and Purification. The plasmids containing the mutant genes were transformed into E. coli BL21 (DE3). The E. coli cells were cultured in LB-rich media (10 g L^−1 tryptone, 5 g L^−1 yeast extract, and 10 g L^−1 NaCl) supplemented with ampicillin (100 μg mL^−1). Overexpression of the mutant proteins was achieved by adding 0.1 mM of isopropyl-1-thio-β-D-galactopyranoside (IPTG) to the E. coli culture when its OD600 nm reached 0.8. […]
All the sialidase and α2-3-sialyltransferase assays were performed in an HPLC system. […] After necessary dilutions were performed to adjust the concentrations of the fluorescent-labeled compounds, the samples were then kept on ice until aliquots of 8 μL were injected and analyzed by a Shimadzu LC-6AD system equipped with a membrane on-line degasser, a temperature control unit, and a fluorescence detector (Shimadzu RF-10AXL). […] The fluorescent compounds LacβMU and Neu5Acα2-3LacβMU were detected by excitation at 325 nm and emission at 372 nm.

Data set [4] relates to CC(=O)N[C@H]1[C@H]([C@H](O)[C@H](O)CO)O[C@](OP(=O)(O)OC[C@H]2O[C@@H](n3ccc(N)nc3=O)[C@H](O)[C@@H]2O)(C(=O)O)C[C@@H]1O. Briefly: purified protein, by the assay type. To be noted: other: apparent.
Data set [5] deals with CC(=O)N[C@H]1[C@H](Oc2ccc3c(C)cc(=O)oc3c2)O[C@H](CO)[C@@H](O[C@@H]2O[C@H](CO)[C@H](O)[C@H](O)[C@H]2O)[C@@H]1O[C@@H]1O[C@@H](C)[C@@H](O)[C@@H](O)[C@@H]1O. Briefly: purified protein, by the assay type. Particulars: other: apparent; acceptor; WT; 37.0 °C.
Procedure: Kinetics of the α2-3-sialyltransferase activity of PmST1 mutants by HPLC analysis. With LacβMU as the acceptor substrate, the reactions were performed in duplicate at 37° C. for 10 min (M144D) or 4 min (M144H) in a reaction mixture (10 μL) containing Tris-HCl (100 mM, pH 8.5), an enzyme (5 μg mL^−1), and different concentrations (0.2, 0.5, 1.0, 2.0, and 5.0 mM) of LacβMU with a fixed concentration (1 mM) of CMP-Neu5Ac or different concentrations (0.2, 0.5, 1.0, 2.0, 5.0, and 10.0 mM) of CMP-Neu5Ac with a fixed concentration (1 mM) of LacβMU. With Le^xβMU as the acceptor substrate, the reactions were carried out in duplicate at 37° C. for 9 min (M144D) or 10 min (M144H) in a reaction mixture (10 μL) containing CAPSO (100 mM, pH 9.5), an enzyme (M144D, 39 μg mL^−1 or M144H, 5 μg mL^−), and various concentrations of Le^xβMU (1.0, 5.0, 10.0, 15.0, 25.0, and 35.0 mM) with a fixed concentration (1 mM) of CMP-Neu5Ac or various concentrations (0.2, 0.5, 1.0, 2.0, 5.0, 10.0, 20.0, and 40.0 mM) of CMP-Neu5Ac with a fixed concentration (1 mM) of Le^xβMU. Reactions were stopped by adding 10 μL of pre-chilled ethanol. The mixtures were incubated on ice for 30 min and centrifuged at 13,000 rpm for 5 min. The supernatants were diluted with 25% acetonitrile and kept on ice until aliquots of 8 μL were injected and analyzed by the Shimadzu LC-6AD system equipped with a membrane on-line degasser, a temperature control unit, and a fluorescence detector (Shimadzu RF-10AXL). A reverse-phase Premier C18 column (250×4.6 mm i.d., 5 μm particle size, Shimadzu) protected with a C18 guard column cartridge was used. The mobile phase was 25% acetonitrile. The fluorophore (MU)-labeled compounds were detected by excitation at 325 nm and emission at 372 nm. The apparent kinetic parameters were obtained by fitting the experimental data (the average values of duplicate assay results) into the Michaelis-Menten equation using Grafit 5.0.
Data set [6] is described as follows: Kinetics of the donor (CMP-Neu5Ac) hydrolysis activity by capillary electrophoresis. It counts as biochemical.
Procedure: The reactions were stopped by adding 10 μL of pre-chilled ethanol. The mixtures were incubated on ice for 30 min and centrifuged at 13,000 rpm for 5 min. The supernatants were diluted with borate buffer (25 mM, pH 9.5) and aliquotes of 5 μL each were injected to a Beckman Coulter P/ACE™ MDQ Capillary Electrophoresis system equipped with a capillary (60 cm×75 μm i.d.) and monitored at 254 nm. The apparent kinetic parameters were obtained by fitting the experimental data (the average values of duplicate assay results) into the Michaelis-Menten equation using Grafit 5.0.
Data set [7] in a line: Apparent kinetics of the α2-3-sialidase activity (HPLC, fluorescent sialoside substrate). The class given is biochemical. To be noted: substrate Neu5Acα2-3LacβMU. As for the experimental part:
All the sialidase and α2-3-sialyltransferase assays were performed in an HPLC system. Reactions were stopped by adding 10 μL of ethanol. […] The mobile phase was 25% acetonitrile.
Kinetics of the α2-3-sialidase activity of PmST1 mutants.

Where [8] appears, read: donor hydrolysis, WT, Tris-HCl pH 8.5, 37° C., 15 min.
Setting [9] is: donor, with Le^xβMU, WT, 37.0 °C.

On to “Pasteurella multocida PmST1 double mutant E271F/R313Y of SEQ ID NO: 13 (E247F/R289Y of Δ24PmST1, SEQ ID NO: 11) (Pasteurella multocida; E271F/R313Y)”, for which the Michaelis-Menten constant (Km) in data set [1] (E271F/R313Y) stood at 340 ± 20 µM; in data set [2] (E271F/R313Y) it was 540 ± 40 µM.
Consider “Pasteurella multocida PmST1 mutant E271F of SEQ ID NO: 13 (E247F of Δ24PmST1, SEQ ID NO: 7) (Pasteurella multocida; E271F)”, for which the Michaelis constant (Km) in data set [1] (E271F) came out at 180 ± 10 µM; in data set [2] (E271F) it was 710 ± 120 µM; in data set [3] (E271F, 1 min), 5700 ± 900 µM.
“Pasteurella multocida PmST1 mutant H311A (Pasteurella multocida; H311A)”: in data set [4] (donor hydrolysis, H311A, Tris-HCl pH 8.5, 37° C., 20 min), the Km came to 1800 ± 200 µM.
For “Pasteurella multocida PmST1 mutant R313Y of SEQ ID NO: 13 (R289Y of Δ24PmST1, SEQ ID NO: 9) (Pasteurella multocida; R313Y)”, the Km was found to be 620 ± 40 µM in data set [1] (R313Y); 670 ± 50 µM in data set [2] (R313Y); 51000 ± 5000 µM in data set [3] (R313Y, 25 min).
Take “Pasteurella multocida α2-3-sialyltransferase 1 (PmST1), wild type (WT), SEQ ID NO: 13 (Pasteurella multocida)”: in data set [5], the Km amounted to 17000 ± 2000 µM and the kcat is 6.7 ± 0.3 s⁻¹. Besides, in data set [4] (setting [8]), the Michaelis-Menten constant (Km) is 1500 ± 200 µM, the kcat was 27 ± 1 s⁻¹ and the catalytic efficiency (kcat/Km) was determined as 18000 M⁻¹ s⁻¹. Besides, in data set [4] (setting [9]), the Km worked out at 390 ± 30 µM and the turnover number (kcat) is 0.55 ± 0.01 s⁻¹.

B1: D141A (protein)
chain: MKNRRLNFKLFFLIIFSLFSTLSWSKTITLYLDPASLPALNQLMDFTQNNEDKTHPRIFGLSRFKIPDNIITQYQNIHFVELKDNRPTEALFTILDQYPGNIELNIHLNIAHSVQLIRPILAYRFKHLDRVSIQQLNLYDAGSMEYVDLEKEENKDISAEIKQAEKQLSHYLLTGKIKFDNPTIARYVWQSAFPVKYHFLSTDYFEKAEFLQPLKEYLAENYQKMDWTAYQQLTPEQQAFYLTLVGFNDEVKQSLEVQQAKFIFTGTTTWEGNTDVREYYAQQQLNLLNHFTQAEGDLFIGDHYKIYFKGHPRGGEINDYILNNAKNITNIPANISFEVLMMTGLLPDKVGGVASSLYFSLPKEKISHIIFTSNKQVKSKEDALNNPYVKVMRRLGIIDESQVIFWDSLKQL
Consider B1, for which the “decrease of efficiency of CMP-Neu5Ac (donor) hydrolysis activity compared to WT” value in data set [6] is recorded as 1,000 fold. Also, the “decrease of α2-3-sialidase activity (catalytic efficiency kcat/Km) compared to wild-type PmST1” value (“decrease of α2-3-sialidase activity” below) in data set [7] is reported as “about 7,300 fold”.

B2: H311A (protein)
chain: B1 chain with A141D, H311A
Take B2: in data set [6], the “decrease of efficiency of CMP-Neu5Ac (donor) hydrolysis activity compared to WT” value is 16 fold.

B3: E271F (protein, listed as Pasteurella multocida)
chain: B1 chain with A141D, E271F
modifications: PmST1 wild-type glycosyltransferase family 80 (GT80), GT80 sialyltransferase, Pm0188Ph
With B3, in data set [7], the “decrease in sialidase Km value compared to wild-type PmST1” value turned out to be 4.2 fold, the “decrease in sialidase kcat (turnover number) compared to wild-type PmST1” value is reported as 250 fold and the “decrease of α2-3-sialidase activity” value is “about 59 fold”.

B4: R313Y (protein, listed as Pasteurella multocida)
chain: B1 chain with A141D, R313Y
modifications: PmST1 wild-type glycosyltransferase family 80 (GT80), GT80 sialyltransferase, Pm0188Ph
As for B4, in data set [7], the “decrease in sialidase kcat (turnover number) compared to wild-type PmST1” value is 1,278 fold, the “decrease of α2-3-sialidase activity” value is listed as 2,639 fold and the “increase in sialidase Km value compared to wild-type PmST1” value stood at 2 fold.
